Experimental data reported in PMC4313731 (Chemistry & biology, 2013).

Tests used:
[1] = molecular target: PhnY (Sinorhizobium meliloti, UniProt Q92UV7); assay: X-ray crystal structure of ternary complex with NAD+, […] Å; assay type: binding; details: NAD+ bound; active site, non-covalent
[2] = substrate: O=CCP(=O)(O)O; assay: steady-state kinetics, NAD+ reduction monitored; assay type: biochemical, Sinorhizobium meliloti; details: saturating NAD+, 50 mM HEPES pH 7.5, 10 mM MgSO4, 30 °C
[3] = substrate: O=CCCP(=O)(O)O; assay: steady-state kinetics, NAD+ reduction monitored; assay type: biochemical, Sinorhizobium meliloti; details: 50 mM HEPES pH 7.5, 10 mM MgSO4, 30 °C
[4] = substrate: O=CC(O)COP(=O)(O)O; assay: steady-state kinetics, NADP+ reduction monitored; assay type: biochemical, Streptococcus mutans; details: racemic G3P, saturating NADP+, 50 mM HEPES pH 8.0, 5 mM DTT
[5] = substrate: O=CCCP(=O)(O)O; assay: steady-state kinetics, NADP+ reduction monitored; assay type: biochemical, Streptococcus mutans; details: saturating NADP+, 50 mM HEPES pH 8.0, 5 mM DTT

Molecule	Km [2] [µM]	kcat [2] [s⁻¹]	other results
O=C(O)CP(=O)(O)O [PnA]			X-ray crystal structure of ternary complex with NAD+, 2.07 Å [1]: cocrystal structure of PhnY in complex with NAD^+ and PnA shows clear and continuous density
PhnY (Sinorhizobium meliloti 1021; R447A) (protein) MTNAEVTIAVRHEPMRIAGRLVDTDDRVEVRYPWNDTVVGTVPAGRAEHAREAFAIAAAYQPKLTRYERQKILLATAEALAARKEEISDVITLELGISKADSLYEVGRAFDVFTLAGQMCIRDDGEIFSCDLTPHGKARKIFTMREPLTAISAITPFNHPLNMVAHKVAPAIATNNCVVVKPTELTPMTALLLADILYEAGLPPEMLSVVTGWPADIGMEMITNPHVDLVTFTGSVPVGKLIAANAHYKRQVLELGGNDPLIILNDLSDDDLARAADLAVAGATKNSGQRCTAVKRILCQESVADRFVPLVLERAKRLRFGDPMDRSTDLGTVIHEKAAALFEERVMRAAEEGADILYHPGRSGALLPPIVVDRVPHQSDLVLEETFGPIIPIVRVPDDDDATITLSNSTAFGLSSGVCTNDYRRMQKYIAGLKVGTVNIWEVPGYAIEMSPFGGIKDSGNGYKEGVIEAMKSFTNVKTFSLPWP	150 ± 20	0.076 ± 0.003	
PhnY (Sinorhizobium meliloti 1021; R290A) (protein) MTNAEVTIAVRHEPMRIAGRLVDTDDRVEVRYPWNDTVVGTVPAGRAEHAREAFAIAAAYQPKLTRYERQKILLATAEALAARKEEISDVITLELGISKADSLYEVGRAFDVFTLAGQMCIRDDGEIFSCDLTPHGKARKIFTMREPLTAISAITPFNHPLNMVAHKVAPAIATNNCVVVKPTELTPMTALLLADILYEAGLPPEMLSVVTGWPADIGMEMITNPHVDLVTFTGSVPVGKLIAANAHYKRQVLELGGNDPLIILNDLSDDDLARAADLAVAGATKNSGQACTAVKRILCQESVADRFVPLVLERAKRLRFGDPMDRSTDLGTVIHEKAAALFEERVMRAAEEGADILYHPGRSGALLPPIVVDRVPHQSDLVLEETFGPIIPIVRVPDDDDATITLSNSTAFGLSSGVCTNDYRRMQKYIAGLKVGTVNIWEVPGYRIEMSPFGGIKDSGNGYKEGVIEAMKSFTNVKTFSLPWP	5.1 ± 0.6	0.12 ± 0.003	
PhnY (Sinorhizobium meliloti 1021) (protein) MTNAEVTIAVRHEPMRIAGRLVDTDDRVEVRYPWNDTVVGTVPAGRAEHAREAFAIAAAYQPKLTRYERQKILLATAEALAARKEEISDVITLELGISKADSLYEVGRAFDVFTLAGQMCIRDDGEIFSCDLTPHGKARKIFTMREPLTAISAITPFNHPLNMVAHKVAPAIATNNCVVVKPTELTPMTALLLADILYEAGLPPEMLSVVTGWPADIGMEMITNPHVDLVTFTGSVPVGKLIAANAHYKRQVLELGGNDPLIILNDLSDDDLARAADLAVAGATKNSGQRCTAVKRILCQESVADRFVPLVLERAKRLRFGDPMDRSTDLGTVIHEKAAALFEERVMRAAEEGADILYHPGRSGALLPPIVVDRVPHQSDLVLEETFGPIIPIVRVPDDDDATITLSNSTAFGLSSGVCTNDYRRMQKYIAGLKVGTVNIWEVPGYRIEMSPFGGIKDSGNGYKEGVIEAMKSFTNVKTFSLPWP			Km [3]: 3300 ± 100 µM; kcat [3]: 1.5 ± 0.1 s⁻¹
PhnY (Sinorhizobium meliloti 1021; R108A) (protein) MTNAEVTIAVRHEPMRIAGRLVDTDDRVEVRYPWNDTVVGTVPAGRAEHAREAFAIAAAYQPKLTRYERQKILLATAEALAARKEEISDVITLELGISKADSLYEVGAAFDVFTLAGQMCIRDDGEIFSCDLTPHGKARKIFTMREPLTAISAITPFNHPLNMVAHKVAPAIATNNCVVVKPTELTPMTALLLADILYEAGLPPEMLSVVTGWPADIGMEMITNPHVDLVTFTGSVPVGKLIAANAHYKRQVLELGGNDPLIILNDLSDDDLARAADLAVAGATKNSGQRCTAVKRILCQESVADRFVPLVLERAKRLRFGDPMDRSTDLGTVIHEKAAALFEERVMRAAEEGADILYHPGRSGALLPPIVVDRVPHQSDLVLEETFGPIIPIVRVPDDDDATITLSNSTAFGLSSGVCTNDYRRMQKYIAGLKVGTVNIWEVPGYRIEMSPFGGIKDSGNGYKEGVIEAMKSFTNVKTFSLPWP	9.7 ± 0.8	0.051 ± 0.001	
PhnY (Sinorhizobium meliloti 1021; N158A) (protein) MTNAEVTIAVRHEPMRIAGRLVDTDDRVEVRYPWNDTVVGTVPAGRAEHAREAFAIAAAYQPKLTRYERQKILLATAEALAARKEEISDVITLELGISKADSLYEVGRAFDVFTLAGQMCIRDDGEIFSCDLTPHGKARKIFTMREPLTAISAITPFAHPLNMVAHKVAPAIATNNCVVVKPTELTPMTALLLADILYEAGLPPEMLSVVTGWPADIGMEMITNPHVDLVTFTGSVPVGKLIAANAHYKRQVLELGGNDPLIILNDLSDDDLARAADLAVAGATKNSGQRCTAVKRILCQESVADRFVPLVLERAKRLRFGDPMDRSTDLGTVIHEKAAALFEERVMRAAEEGADILYHPGRSGALLPPIVVDRVPHQSDLVLEETFGPIIPIVRVPDDDDATITLSNSTAFGLSSGVCTNDYRRMQKYIAGLKVGTVNIWEVPGYRIEMSPFGGIKDSGNGYKEGVIEAMKSFTNVKTFSLPWP	29 ± 9	0.010 ± 0.001	
GAPDH (Streptococcus mutans UA159) (protein) MTKQYKNYVNGEWKLSENEIKIYEPASGAELGSVPAMSTEEVDYVYASAKKAQPAWRSLSYIERAAYLHKVADILMRDKEKIGAVLSKEVAKGYKSAVSEVVRTAEIINYAAEEGLRMEGEVLEGGSFEAASKKKIAVVRREPVGLVLAISPFNYPVNLAGSKIAPALIAGNVIAFKPPTQGSISGLLLAEAFAEAGLPAGVFNTITGRGSEIGDYIVEHQAVNFINFTGSTGIGERIGKMAGMRPIMLELGGKDSAIVLEDADLELTAKNIIAGAFGYSGQRCTAVKRVLVMESVADELVEKIREKVLALTIGNPEDDADITPLIDTKSADYVEGLINDANDKGAAALTEIKREGNLICPILFDKVTTDMRLAWEEPFGPVLPIIRVTSVEEAIEISNKSEYGLQASIFTNDFPRAFGIAEQLEVGTVHINNKTQRGTDNFPFLGAKKSGAGIQGVKYSIEAMTTVKSVVFDIK			Km [4]: 25 ± 7 µM; kcat [4]: 22 ± 2 s⁻¹; Km [5]: 1500 ± 300 µM; kcat [5]: 0.038 ± 0.022 s⁻¹
